The source of these data is patent US20110263454A1, “Methods of Identifying Functional Characteristics of Promoters, Transcription Modifying Proteins and Transcription Modulating Agents” (Salk Institute for Biological Studies, priority 2008, published 2011).

One assay deals with hTNFa promoter. In words: NHR-promoter luciferase screen, hTNFa promoter. The class given is cell-based, human. Conditions: for Luc. act., normalized to lacZ / Normalized Luc. act., normalized to control: TNFa promoter, HR component without or with ligand; for hTNFa promoter reporter activity: transcription factor +/- ligand, control = 1.00. The method, boiled down: (§1)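 CV-1 cells were co-transfected with 50 ng NHR (homodimer or NHR/RXR heterodimer), 100 ng promoter-luciferase construct and 50 ng LacZ. Luciferase was normalized to LacZ and to a no-NHR/no-ligand control.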

The test system of the next assay is mDio1 promoter. Kind of assay: NHR-promoter luciferase screen, mDio1 promoter. It is filed as cell-based, mouse. Conditions: for Luc. act., normalized to lacZ / Normalized Luc. act., normalized to control: Dio1, HR component without or with its ligand; for mDio1 promoter reporter activity: transcription factor +/- ligand, control = 1.00. The essentials:
as §1

The test system of another assay is hMDR1 promoter. In words: NHR-promoter luciferase screen, hMDR1 promoter. It is filed as cell-based, human. Conditions: for Luc. act., normalized to lacZ / Normalized Luc. act., normalized to control: MDR1 promoter, HR/ligand component; for hMDR1 promoter reporter activity: transcription factor +/- ligand, control = 1.00. The method, boiled down:
as §1

A further assay deals with mAgrp promoter. In words: NHR-promoter luciferase screen, mAgrp promoter. The class given is cell-based, mouse. Conditions: for Results of assays of transcription factor (+/- ligand) with mAgrp: Table 6d, luciferase activity relative to control (control = 1.00); for Luc. act., normalized to lacZ / Normalized Luc. act., normalized to control: mAgrp promoter, HR component with or without ligand; for Normalized Luc. act., normalized to control: relative to control. The essentials: as §1

Another assay relates to mADRP promoter. In words: NHR-promoter luciferase screen, mADRP promoter. It is filed as cell-based, mouse. Conditions: for Luc. act., normalized to lacZ / Normalized Luc. act., normalized to control: ADRP promoter, HR/ligand component; for mADRP promoter reporter activity: transcription factor +/- ligand, control = 1.00. The essentials:
as §1

In a further assay the test system is hPOMC promoter. In words: NHR-promoter luciferase screen, hPOMC promoter. It is filed as cell-based, human. Conditions: for Normalized Luc. act., normalized to control / Luc. act., normalized to lacZ: hPOMC promoter, HR/ligand component; for hPOMC promoter reporter activity: transcription factor +/- ligand, control = 1.00. The essentials: as §1

B1: hMR: Mineralocorticoid Receptor (NR3C2, MR), cDNA driver (protein, UniProt P08235 1-984, looked up)
Mineralocorticoid receptor: METKGYHSLPEGLDMERRWGQVSQAVERSSLGPTERTDENNYMEIVNVSCVSGAIPNNSTQGSSKEKQELLPCLQQDNNRPGILTSDIKTELESKELSATVAESMGLYMDSVRDADYSYEQQNQQGSMSPAKIYQNVEQLVKFYKGNGHRPSTLSCVNTPLRSFMSDSGSSVNGGVMRAVVKSPIMCHEKSPSVCSPLNMTSSVCSPAGINSVSSTTASFGSFPVHSPITQGTPLTCSPNVENRGSRSHSPAHASNVGSPLSSPLSSMKSSISSPPSHCSVKSPVSSPNNVTLRSSVSSPANINNSRCSVSSPSNTNNRSTLSSPAASTVGSICSPVNNAFSYTASGTSAGSSTLRDVVPSPDTQEKGAQEVPFPKTEEVESAISNGVTGQLNIVQYIKPEPDGAFSSSCLGGNSKINSDSSFSVPIKQESTKHSCSGTSFKGNPTVNPFPFMDGSYFSFMDDKDYYSLSGILGPPVPGFDGNCEGSGFPVGIKQEPDDGSYYPEASIPSSAIVGVNSGGQSFHYRIGAQGTISLSRSARDQSFQHLSSFPPVNTLVESWKSHGDLSSRRSDGYPVLEYIPENVSSSTLRSVSTGSSRPSKICLVCGDEASGCHYGVVTCGSCKVFFKRAVEGQHNYLCAGRNDCIIDKIRRKNCPACRLQKCLQAGMNLGARKSKKLGKLKGIHEEQPQQQQPPPPPPPPQSPEEGTTYIAPAKEPSVNTALVPQLSTISRALTPSPVMVLENIEPEIVYAGYDSSKPDTAENLLSTLNRLAGKQMIQVVKWAKVLPGFKNLPLEDQITLIQYSWMCLSSFALSWRSYKHTNSQFLYFAPDLVFNEEKMHQSAMYELCQGMHQISLQFVRLQLTFEEYTIMKVLLLLSTIPKDGLKSQAAFEEMRTNYIKELRKMVTKCPNNSGQSWQRFYQLTKLLDSMHDLVSDLLEFCFYTFRESHALKVEFPAMLVEIISDQLPKVESGNAKPLYFHRK
Regarding B1, in the assay on hTNFa promoter, the “Luc. act., normalized to lacZ” value is given as 614.3; the “Normalized Luc. act., normalized to control” value worked out at 0.6; the “hTNFa promoter reporter activity” value worked out at 0.62. In the assay with mDio1 promoter, the “Luc. act., normalized to lacZ” value worked out at 2.4; the “Normalized Luc. act., normalized to control” value turned out to be 0.5; the “mDio1 promoter reporter activity” value is on record as 0.55. Also, in the assay with hMDR1 promoter, the “Luc. act., normalized to lacZ” value was determined as 0.1; the “Normalized Luc. act., normalized to control” value stood at 0.3; the “hMDR1 promoter reporter activity” value turned out to be 0.34. In addition, in the assay with mAgrp promoter, the “Results of assays of transcription factor (+/- ligand) with mAgrp” value (“Results” below) is 0.79; the “Luc. act., normalized to lacZ” value stood at 31.2; the “Normalized Luc. act., normalized to control” value was 0.8. Also, in the assay on mADRP promoter, the “Luc. act., normalized to lacZ” value was determined as 306.4; the “Normalized Luc. act., normalized to control” value amounted to 0.6; the “mADRP promoter reporter activity” value was 0.62. In the assay with hPOMC promoter, the “Normalized Luc. act., normalized to control” value was determined as 0.0 and the “hPOMC promoter reporter activity” value stood at 0.00.

B2: CTF2: COUP-TF2 (NR2F2), cDNA driver (protein, UniProt P24468 1-414, looked up)
COUP transcription factor 2: MAMVVSTWRDPQDEVPGSQGSQASQAPPVPGPPPGAPHTPQTPGQGGPASTPAQTAAGGQGGPGGPGSDKQQQQQHIECVVCGDKSSGKHYGQFTCEGCKSFFKRSVRRNLSYTCRANRNCPIDQHHRNQCQYCRLKKCLKVGMRREAVQRGRMPPTQPTHGQFALTNGDPLNCHSYLSGYISLLLRAEPYPTSRFGSQCMQPNNIMGIENICELAARMLFSAVEWARNIPFFPDLQITDQVALLRLTWSELFVLNAAQCSMPLHVAPLLAAAGLHASPMSADRVVAFMDHIRIFQEQVEKLKALHVDSAEYSCLKAIVLFTSDACGLSDVAHVESLQEKSQCALEEYVRSQYPNQPTRFGKLLLRLPSLRTVSSSVIEQLFFVRLVGKTPIETLIRDMLLSGSSFNWPYMAIQ
Take B2: in the assay with hTNFa promoter, the “Luc. act., normalized to lacZ” value is reported as 1014.3; the “Normalized Luc. act., normalized to control” value is recorded as 1.0; the “hTNFa promoter reporter activity” value came to 1.03. Moreover, in the assay on mDio1 promoter, the “Luc. act., normalized to lacZ” value was determined as 20.9; the “Normalized Luc. act., normalized to control” value was 4.7; the “mDio1 promoter reporter activity” value was 4.69. In the assay on hMDR1 promoter, the “Luc. act., normalized to lacZ” value came to 0.3; the “Normalized Luc. act., normalized to control” value was 1.0; the “hMDR1 promoter reporter activity” value is recorded as 1.01. In the assay on mAgrp promoter, the “Results” value is on record as 1.08; the “Luc. act., normalized to lacZ” value was 42.7; the “Normalized Luc. act., normalized to control” value was determined as 1.1. In the assay with mADRP promoter, the “Luc. act., normalized to lacZ” value is 893.8; the “Normalized Luc. act., normalized to control” value stood at 1.8; the “mADRP promoter reporter activity” value is 1.80. Moreover, in the assay on hPOMC promoter, the “Normalized Luc. act., normalized to control” value worked out at 0.0 and the “hPOMC promoter reporter activity” value was found to be 0.00.

B3: PR: Progesterone Receptor (NR3C3), cDNA driver (protein, UniProt P06401 1-933, looked up)
Progesterone receptor: MTELKAKGPRAPHVAGGPPSPEVGSPLLCRPAAGPFPGSQTSDTLPEVSAIPISLDGLLFPRPCQGQDPSDEKTQDQQSLSDVEGAYSRAEATRGAGGSSSSPPEKDSGLLDSVLDTLLAPSGPGQSQPSPPACEVTSSWCLFGPELPEDPPAAPATQRVLSPLMSRSGCKVGDSSGTAAAHKVLPRGLSPARQLLLPASESPHWSGAPVKPSPQAAAVEVEEEDGSESEESAGPLLKGKPRALGGAAAGGGAAAVPPGAAAGGVALVPKEDSRFSAPRVALVEQDAPMAPGRSPLATTVMDFIHVPILPLNHALLAARTRQLLEDESYDGGAGAASAFAPPRSSPCASSTPVAVGDFPDCAYPPDAEPKDDAYPLYSDFQPPALKIKEEEEGAEASARSPRSYLVAGANPAAFPDFPLGPPPPLPPRATPSRPGEAAVTAAPASASVSSASSSGSTLECILYKAEGAPPQQGPFAPPPCKAPGASGCLLPRDGLPSTSASAAAAGAAPALYPALGLNGLPQLGYQAAVLKEGLPQVYPPYLNYLRPDSEASQSPQYSFESLPQKICLICGDEASGCHYGVLTCGSCKVFFKRAMEGQHNYLCAGRNDCIVDKIRRKNCPACRLRKCCQAGMVLGGRKFKKFNKVRVVRALDAVALPQPVGVPNESQALSQRFTFSPGQDIQLIPPLINLLMSIEPDVIYAGHDNTKPDTSSSLLTSLNQLGERQLLSVVKWSKSLPGFRNLHIDDQITLIQYSWMSLMVFGLGWRSYKHVSGQMLYFAPDLILNEQRMKESSFYSLCLTMWQIPQEFVKLQVSQEEFLCMKVLLLLNTIPLEGLRSQTQFEEMRSSYIRELIKAIGLRQKGVVSSSQRFYQLTKLLDNLHDLVKQLHLYCLNTFIQSRALSVEFPEMMSEVIAAQLPKILAGMVKPLLFHKK
On to B3, for which, in the assay with hTNFa promoter, the “Luc. act., normalized to lacZ” value stood at 1214.8; the “Normalized Luc. act., normalized to control” value was found to be 1.2; the “hTNFa promoter reporter activity” value amounted to 1.24. In addition, in the assay with mDio1 promoter, the “Luc. act., normalized to lacZ” value amounted to 7.8; the “Normalized Luc. act., normalized to control” value was 1.8; the “mDio1 promoter reporter activity” value is given as 1.75. Moreover, in the assay on hMDR1 promoter, the “Luc. act., normalized to lacZ” value worked out at 0.4; the “Normalized Luc. act., normalized to control” value stood at 1.3; the “hMDR1 promoter reporter activity” value is 1.35. Moreover, in the assay on mAgrp promoter, the “Results” value worked out at 1.13; the “Luc. act., normalized to lacZ” value turned out to be 44.7; the “Normalized Luc. act., normalized to control” value was 1.1. Further, in the assay on mADRP promoter, the “Luc. act., normalized to lacZ” value is on record as 497.2; the “Normalized Luc. act., normalized to control” value is 1.0; the “mADRP promoter reporter activity” value stood at 1.00. Moreover, in the assay on hPOMC promoter, the “Luc. act., normalized to lacZ” value was 3.2; the “Normalized Luc. act., normalized to control” value was 0.7; the “hPOMC promoter reporter activity” value is on record as 0.75.

B4: CTF3: COUP-TF3 (NR2F6), cDNA driver (protein, UniProt P10588 1-404, looked up)
Nuclear receptor subfamily 2 …: MAMVTGGWGGPGGDTNGVDKAGGYPRAAEDDSASPPGAASDAEPGDEERPGLQVDCVVCGDKSSGKHYGVFTCEGCKSFFKRSIRRNLSYTCRSNRDCQIDQHHRNQCQYCRLKKCFRVGMRKEAVQRGRIPHSLPGAVAASSGSPPGSALAAVASGGDLFPGQPVSELIAQLLRAEPYPAAAGRFGAGGGAAGAVLGIDNVCELAARLLFSTVEWARHAPFFPELPVADQVALLRLSWSELFVLNAAQAALPLHTAPLLAAAGLHAAPMAAERAVAFMDQVRAFQEQVDKLGRLQVDSAEYGCLKAIALFTPDACGLSDPAHVESLQEKAQVALTEYVRAQYPSQPQRFGRLLLRLPALRAVPASLISQLFFMRLVGKTPIETLIRDMLLSGSTFNWPYGSGQ
Regarding B4, in the assay with hTNFa promoter, the “Luc. act., normalized to lacZ” value turned out to be 932.4; the “Normalized Luc. act., normalized to control” value is 0.9; the “hTNFa promoter reporter activity” value is 0.95. Moreover, in the assay on mDio1 promoter, the “Luc. act., normalized to lacZ” value is on record as 10.0; the “Normalized Luc. act., normalized to control” value is given as 2.2; the “mDio1 promoter reporter activity” value was 2.23. Further, in the assay on hMDR1 promoter, the “Luc. act., normalized to lacZ” value is on record as 0.4; the “Normalized Luc. act., normalized to control” value is 1.4; the “hMDR1 promoter reporter activity” value stood at 1.36. Further, in the assay on mAgrp promoter, the “Results” value is given as 0.86; the “Luc. act., normalized to lacZ” value is recorded as 34.2; the “Normalized Luc. act., normalized to control” value is recorded as 0.9. In the assay with mADRP promoter, the “Luc. act., normalized to lacZ” value is 462.7; the “Normalized Luc. act., normalized to control” value amounted to 0.9; the “mADRP promoter reporter activity” value is on record as 0.93. For the same molecule, in the assay with hPOMC promoter, the “Luc. act., normalized to lacZ” value was 1.8; the “Normalized Luc. act., normalized to control” value was found to be 0.4; the “hPOMC promoter reporter activity” value amounted to 0.42.
